Assay results from patent US20210338751A1 (LUMEN BIOSCIENCE, published 2021).

B1: Nano94-TxnA (VHH)
VHH: QVQLQESGGGLVQAGGSLRLSCAASGRMFSINSMGWYRQAPGKERELVATISEAGTTTYADSVRGRFTIARDNAKNTVYLQMNSLNPEDTAVYYCNAYIQLDSTIWFRAYWGQGTQVTVSS
notes: also called SP835
B2: Nano94-MBP (VHH)
VHH: B1 VHH
notes: also called SP836
B3: anti-TcdB VHH 5D (VHH)
VHH: QVQLVESGGGLVQPGGSLRLSCEASGFTLDYYGIGWFRQPPGKEREAVSYISASARTILYADSVKGRFTISRDNAKNAVYLQMNSLKREDTAVYYCARRRFSASSVNRWLADDYDVWGRGTQVAVSS
B4: 5D+E3+7F (other)
VHH 5D: QVQLVESGGGLVQPGGSLRLSCEASGFTLDYYGIGWFRQPPGKEREAVSYISASARTILYADSVKGRFTISRDNAKNAVYLQMNSLKREDTAVYYCARRRFSASSVNRWLADDYDVWGRGTQVAVSSEPKTPKPQ
VHH E3: QVQLVESGGGLVQTGGSLRLSCASSGSIAGFETVTWSRQAPGKSLQWVASMTKTNNEIYSDSVKGRFIISRDNAKNTVYLQMNSLKPEDTGVYFCKGPELRGQGIQVTVSSEPKTPKPQ
VHH 7F: DVQLQASGGGLVQAGGSLRLSCVASARTFSSYAMGWFRQAPGKEREFVAAISWSGASTDYADSVKGRFTISRDNAKKTVYLQMNTLKPEDTAVYYCAAHHITPTGSYYYSEPLPVDMVYDYWGQGTQVTVSSEPKTKTTTSGR
B5: 5D+E3+2D (other)
VHH 5D: B4 VHH 5D
VHH E3: B4 VHH E3
VHH 2D: QVKLQQSGGGLVQAGGSLRLSCAASGTFSRYAMGWFRQAPGKEREFVAAINWTGGSTYYADSVKGRFTISGDNAKNTVYLQMNSLKPGDTAVYYCAAEVHPGDYGLTYMQSQYEYDYWGQGTQVTVSSEPKTPKPTTSGR
B6: E3+7F+2D (other)
VHH E3: B4 VHH E3
VHH 7F: B4 VHH 7F
VHH 2D: B5 VHH 2D
B7: 5D+7F+5E (other)
VHH 5D: B4 VHH 5D
VHH 7F: B4 VHH 7F
VHH 5E: VQLVESGGGLVQAGGSLRLSCAASGLMFGAMTMGWYRQAPGKEREMVAYITAGGTESYSESVKGRFTISRINANNMVYLQMTNLKVEDTAVYYCNAHNFWRTSRNWGQGTQVTVSSEPKTPKP
B8: anti-TcdB VHH E3 (VHH)
VHH: B4 VHH E3
B9: anti-TcdB VHH B12 (VHH)
VHH: VQLVESGGGLVQAGDSLTLSCAASESTFNTFSMAWFRQAPGKEREYVAAFSRSGGTTNYADSVKGRATISTDNAKNTVYLHMNSLKPEDTAVYFCAADRPAGRAYFQSRSYNYWGQGTQVTVSS
B10: Nano26-MBP (VHH, not shown: large carriers)
VHH: QVQLQESGGGLVQPGGSLRLSCTAPRIIFFMYDVGWYRQAPEKQRELVAQINSDVSTKYADSVKGRFTISRDNAKRTVYLQMNDLKPEDAAVYYCNVRRASADYWGQGTQVTVSS
notes: also called SP834
B11: anti-TcdB VHH C6 (VHH)
VHH: VQLVESGGGLVQAGESLRLSCVVSESIFRINTMGWYRQTPGKQREVVARITLRNSTTYADSVKGRFTISRDDAKNTLYLKMDSLKPEDTAVYYCHRYPLIFRNSPYWGQGTQVTVSS
B12: anti-TcdB VHH 7F (VHH)
VHH: QVQLVESGGGLVEAGGSLRLSCVVTGSSFSTSTMAWYRQPPGKQREWVASFTSGGAIKYTDSVKGRFTMSRDNAKKMTYLQMENLKPEDTAVYYCALFINAVSGSSWGRGTQVTVSS

How the values were obtained:
[1] = biological target: T1, recombinant HuNoV GI.1 P domain (Human Norovirus (HuNoV) GI.1); test: ELISA on recombinant GI.1 P domain
T1 construct: domain: Protrusion (P) domain

[2] = biological target: T1, recombinant HuNoV GI.1 P domain; test: ELISA on recombinant HuNoV GI.1 P domain, Spirulina-expressed Ni-NTA purified protein stored at 4 C
GI.1 VLPs = biological target: T2, GI.1 VLPs (human norovirus genotype GI.1); test: blocking of GI.1 VLP binding to pig gastric mucin (HBGA)
T2 construct: virus-like particle

[3] = biological target: T1, recombinant HuNoV GI.1 P domain; test: ELISA on recombinant HuNoV GI.1 P domain, Spirulina-expressed Ni-NTA purified protein after freeze-drying
[4] = biological target: T3, Clostridium difficile toxin B (TcdB) (Clostridium difficile, UniProt P18177 2-2366); test: method not stated
T3 construct: also called TcdB toxin

[5] = biological target: T3, Clostridium difficile toxin B (TcdB); test: assay not given; unlabelled list of VHH names and values at the right of the sheet, the same values stand under KD in Table 6 of the text, which prints the unit of 5D as mM
[6] = biological target: T3, Clostridium difficile toxin B (TcdB); test: cell-based or functional assay
[7] = biological target: T4, recombinant HuNoV GII.2 P domain (Human Norovirus (HuNoV) GII.2); test: BLI, biotin tagged GII.2 P domain at 100 nM as antigen
T4 construct: domain: Protrusion (P) domain

[8] = biological target: T5, recombinant HuNoV GII.10 P domain (Human Norovirus (HuNoV) GII.10); test: ELISA on recombinant HuNoV GII.10 P domain, Spirulina-expressed Ni-NTA purified protein after freeze-drying
T5 construct: domain: Protrusion (P) domain

[9] = biological target: T5, recombinant HuNoV GII.10 P domain; test: ELISA on recombinant HuNoV GII.10 P domain, Spirulina-expressed Ni-NTA purified protein stored at 4 C

Binder	Kd [4]	Adherence Score at TcdB 0.00001 ng/ml, VHH 100 ng/ml total; none: 7 [6]	Adherence Score at TcdB 0.0001 ng/ml, VHH 100 ng/ml total; none: 7 [6]	Adherence Score at TcdB 0.001 ng/ml, VHH 100 ng/ml total; none: 6 [6]	Adherence Score at TcdB 0.01 ng/ml, VHH 100 ng/ml total; none: 5 [6]	Adherence Score at TcdB 0.1 ng/ml, VHH 100 ng/ml total; none: 2 [6]	Adherence Score at TcdB 1 ng/ml, VHH 100 ng/ml total; none: 1 [6]	Adherence Score at TcdB 10 ng/ml, VHH 100 ng/ml total; none: 1 [6]	further results
B1									EC50 [1]: 50.1 nM; EC50 [2]: 27.3 nM; IC50 (read off the curve) (GI.1 VLPs): ~2 µg/mL; EC50 [3]: 36.7 nM
B2									IC50 (read off the curve) (GI.1 VLPs): ~2 µg/mL
B3	0.65 nM								Kd [5]: 0.65 nM
B4		7	7	7	7	7	7	3	
B5		7	7	7	7	7	6.1	2.1	
B6		7	7	7	7	6	4	1	
B7		7	7	7	7	7	4	1	
B8	0.03 nM								
B9	0.07 nM								
B10									Kd [7]: 21.9 nM; kon [7]: 172000 M⁻¹ s⁻¹; EC50 [8]: 2.29 nM; EC50 [9]: 2.75 nM
B11	0.89 nM								
B12	8.8 nM								
